The text below walks through data of patent US20240042018A1 (University of Washington, published 2024).

To fix the notation:
T1: I53_dn5B trimer
T1 chain: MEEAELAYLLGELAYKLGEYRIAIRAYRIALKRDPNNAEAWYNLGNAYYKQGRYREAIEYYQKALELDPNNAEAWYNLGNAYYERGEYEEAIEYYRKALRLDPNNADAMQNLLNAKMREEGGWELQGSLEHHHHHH

B1: I53_dn5Acp7 pentamer with ELP fused to the C terminus (designed binder)
chain: MGSHHHHHHGSDEQAEERAGTKAGNHGEDWGAAAVEMATKFNGSGGSGKYDGSKLRIGILHARGNAEIILELVLGALKRLQEFGVKRENIIIETVPGSFELPYGSKLFVEKQKRLGKPLDAIIPIGVLIRGSTAHFDYIADSTTHQLMKLNFELGIPVIFGVLTTES
B2: I53_dn5Acp7 PAS pentamer (designed binder)
chain: MGSHHHHHHGSDEQAEERAGTKAGNHGEDWGAAAVEMATKFNGSGGSGKYDGSKLRIGILHARGNAEIILELVLGALKRLQEFGVKRENIIIETVPGSFELPYGSKLFVEKQKRLGKPLDAIIPIGVLIRGSTAHFDYIADSTTHQLMKLNFELGIPVIFGVLTTESGGSASPAAPAPASPAAPAPSAPAAASPAAPAPASPAAPAPSAPAAASPAAPAPASPAAPAPSAPAA
B3: I53_dn5A_D120C pentamer coupled to 1 kDa PEG (designed binder)
chain: MGKYDGSKLRIGILHARGNAEIILALVLGALKRLQEFGVKRENIIIETVPGSFELPYGSKLFVEKQKRLGKPLDAIIPIGVLIRGSTPHFDYIADSTTHQLMKLNFELGIPVIFGVITADTCEQAEARAGLIEGKMHNHGEDWGAAAVEMATKFNGGWELQLEGSHHHHHH
B4: I53_dn5A_D120C pentamer coupled to 2 kDa PEG (designed binder)
chain: MGKYDGSKLRIGILHARGNAEIILALVLGALKRLQEFGVKRENIIIETVPGSFELPYGSKLFVEKQKRLGKPLDAIIPIGVLIRGSTPHFDYIADSTTHQLMKLNFELGIPVIFGVITADTCEQAEARAGLIEGKMHNHGEDWGAAAVEMATKFNGGWELQLEGSHHHHHH
B5: I53_dn5A_S84C_D120C pentamer coupled to 1 kDa PEG (designed binder)
chain: MGKYDGSKLRIGILHARGNAEIILALVLGALKRLQEFGVKRENIIIETVPGSFELPYGSKLFVEKQKRLGKPLDAIIPIGVLIRGCTPHFDYIADSTTHQLMKLNFELGIPVIFGVITADTCEQAEARAGLIEGKMHNHGEDWGAAAVEMATKFNGGWELQLEGSHHHHHH
B6: I53_dn5A_2C2kPEG pentamer (designed binder)
chain: MGKYDGSKLRIGILHARGNAEIILALVLGALKRLQEFGVKRENIIIETVPGSFELPYGSKLFVEKQKRLGKPLDAIIPIGVLIRGCTPHFDYIADSTTHQLMKLNFELGIPVIFGVITADTCEQAEARAGLIEGKMHNHGEDWGAAAVEMATKFNGGWELQLEGSHHHHHH
B7: I53_dn5A_S84C_D120C pentamer coupled to 5 kDa PEG (designed binder)
chain: MGKYDGSKLRIGILHARGNAEIILALVLGALKRLQEFGVKRENIIIETVPGSFELPYGSKLFVEKQKRLGKPLDAIIPIGVLIRGCTPHFDYIADSTTHQLMKLNFELGIPVIFGVITADTCEQAEARAGLIEGKMHNHGEDWGAAAVEMATKFNGGWELQLEGSHHHHHH
modifications: 5 kDa PEG-maleimide on Cys84 and Cys120
B8: SEQ ID NO 70 (I53-50A_4gly) (designed binder)
chain: EELFKKHKIVAVLRANSVEEAIEKAVAVFAGGVHLIEITFTVPDADTVIKALSVLKEKGAIIGAGTVFSNETCRKAVESNATFIVSPHLDEEISNFTKEKNVTYMPGVMTPTELVKAMKLGHTILKLFPGEVVGPQFVKAMKGPFPNVKFVPTGGVNLDNVCEWFKAGVLAVGVGSALVKGTPDEVREKAKAFVEKIRGC
modifications: N-linked glycans at sequons 69-FSNET-73; 81-NAT-83; 96-NFT-98; 102-NVT-104
B9: SEQ ID NO 71 (I53-50A_5gly) (designed binder)
chain: EELFKKHKIVAVLRANSVEEAIEKAVAVFAGGVHLIEITFTVPNATTVIKALSVLKEKGAIIGAGTVTSVEYANETVESGAEFIVSPHLDEEISNFTKEKGVFYMPGVMTPTELVKAMKLNVTILKLFPGEVVGPQFVKAMKGPFHNATFVPTGGVNLDNVCEWFKAGVLAVGVGSALVKGTPDEVREKAKAFVEKIRGC
modifications: N-linked glycans at sequons 45-NAT-47; 73-YANET-77; 96-NFT-98; 122-NVT-124; 146-FHNAT-150
B10: SEQ ID NO 73 (I53-50A_6gly) (designed binder)
chain: EELFKKHKIVAVLRANSVEEAIEKAVAVFAGGVHLIEITFTVPNATTVIKALSVLKEKGAIIGAGTVFSNETCRKAVESGAEFIVSPHLDEEISNFTKEKNVTYMPGVMTPTELVKAMKLNVTILKLFPGEVVGPQFVKAMKGPFHNATFVPTGGVNLDNVCEWFKAGVLAVGVGSALVKGTPDEVREKAKAFVEKIRGC
modifications: N-linked glycans at sequons 45-NAT-47; 69-FSNET-73; 96-NFT-98; 102-NVT-104; 122-NVT-124; 146-FHNAT-150
B11: SEQ ID NO 74 (I53-50A_6gly) (designed binder)
chain: EELFKKHKIVAVLRANSVEEAIEKAVAVFAGGVHLIEITFTVPNATTVIKALSVLKEKGAIIGAGTVTSVEQCRKAVESNATFIVSPHLDEEISNFTKEKNVTYMPGVMTPTELVKAMKLNVTILKLFPGEVVGPQFVKAMKGPFHNATFVPTGGVNLDNVCEWFKAGVLAVGVGSALVKGTPDEVREKAKAFVEKIRGC
modifications: N-linked glycans at sequons 45-NAT-47; 81-NAT-83; 96-NFT-98; 102-NVT-104; 122-NVT-124; 146-FHNAT-150
B12: SEQ ID NO 68 (I53-50A_4gly) (designed binder)
chain: EELFKKHKIVAVLRANSVEEAIEKAVAVFAGGVHLIEITFTVPNATTVIKALSVLKEKGAIIGAGTVTSVEYANETVESNATFIVSPHLDEEISNFTKEKGVFYMPGVMTPTELVKAMKLGHTILKLFPGEVVGPQFVKAMKGPFPNVKFVPTGGVNLDNVCEWFKAGVLAVGVGSALVKGTPDEVREKAKAFVEKIRGC
modifications: N-linked glycans at sequons 45-NAT-47; 73-YANET-77; 81-NAT-83; 96-NFT-98
B13: SEQ ID NO 69 (I53-50A_4gly) (designed binder)
chain: EELFKKHKIVAVLRANSVEEAIEKAVAVFAGGVHLIEITFTVPDADTVIKALSVLKEKGAIIGAGTVTSVEQCRKAVESGAEFIVSPHLDEEISNFTKEKNVTYMPGVMTPTELVKAMKLNVTILKLFPGEVVGPQFVKAMKGPFHNATFVPTGGVNLDNVCEWFKAGVLAVGVGSALVKGTPDEVREKAKAFVEKIRGC
modifications: N-linked glycans at sequons 96-NFT-98; 102-NVT-104; 122-NVT-124; 146-FHNAT-150
B14: I53-50A_4gly trimer (designed binder)
chain: EELFKKHKIVAVLRANSVEEAIEKAVAVFAGGVHLIEITFTVPNATTVIKALSVLKEKGAIIGAGTVTSVEYANETVESGAEFIVSPHLDEEISNFTKEKGVFYMPGVMTPTELVKAMKLGHTILKLFPGEVVGPQFVKAMKGPFHNATFVPTGGVNLDNVCEWFKAGVLAVGVGSALVKGTPDEVREKAKAFVEKIRGCLEEQKLISEEDLHHHHHH
modifications: N-linked glycans at sequons 45-NAT-47; 73-YANET-77; 96-NFT-98; 146-FHNAT-150
B15: SEQ ID NO 49 (I53_dn5A_3gly) (designed binder)
chain: KYDGSKLRIGILHARGNAEIILELVLGALKRLQEFGVKRENIIIETVPGSFELPYGSKLFVEKQKRLGKPLDAIIPIGVLIRNETAHFDYIADSTTHQLMKLNFELGIPVIFGVLTTNDTEQAEERAGTNATNHGEDWGAAAVEMATKFNLEEQKLISEEDLHHHHHH
modifications: N-linked glycans at sequons 83-NET-85; 118-NDT-120; 130-NAT-132
B16: SEQ ID NO 53 (I53_dn5A_2gly) (designed binder)
chain: KYDGSKLRIGILHARGNAEIILELVLGALKRLQEFGVKRENIIIETVPGSFELPYGSKLFVEKQKRLGKPLDAIIPIGVLIRGNDTHFDYIADSTTHQLMKLNFELGIPVIFGVLTTESDEQAEERAGTKNGTHGEDWGAAAVEMATKFNLEEQKLISEEDLHHHHHH
modifications: N-linked glycans at sequons 84-NDT-86; 131-NGT-133
B17: SEQ ID NO 51 (I53_dn5A_3gly) (designed binder)
chain: KYDGSKLRIGILHARGNAEIILELVLGALKRLQEFGVKRENIIIETVPGSFELPYGSKLFVEKQKRLGKPLDAIIPIGVLIRGNDTHFDYIADSTTHQLMKLNFELGIPVIFGVLTTNDTEQAEERAGTNATNHGEDWGAAAVEMATKFNLEEQKLISEEDLHHHHHH
modifications: N-linked glycans at sequons 84-NDT-86; 118-NDT-120; 130-NAT-132
B18: SEQ ID NO 55 (I53_dn5A_2gly) (designed binder)
chain: KYDGSKLRIGILHARGNAEIILELVLGALKRLQEFGVKRENIIIETVPGSFELPYGSKLFVEKQKRLGKPLDAIIPIGVLIRGSTAHFDYIADSTTHQLMKLNFELGIPVIFGVLTTESNETAEERAGTNATNHGEDWGAAAVEMATKFNLEEQKLISEEDLHHHHHH
modifications: N-linked glycans at sequons 120-NET-122; 130-NAT-132
B19: SEQ ID NO 50 (I53_dn5A_3gly) (designed binder)
chain: KYDGSKLRIGILHARGNAEIILELVLGALKRLQEFGVKRENIIIETVPGSFELPYGSKLFVEKQKRLGKPLDAIIPIGVLIRGNDTHFDYIADSTTHQLMKLNFELGIPVIFGVLTTESNETAEERAGTKNGTHGEDWGAAAVEMATKFNLEEQKLISEEDLHHHHHH
modifications: N-linked glycans at sequons 84-NDT-86; 120-NET-122; 131-NGT-133
B20: SEQ ID NO 52 (I53_dn5A_2gly) (designed binder)
chain: KYDGSKLRIGILHARGNAEIILELVLGALKRLQEFGVKRENIIIETVPGSFELPYGSKLFVEKQKRLGKPLDAIIPIGVLIRNDTAHFDYIADSTTHQLMKLNFELGIPVIFGVLTTESDEQAEERAGTNATNHGEDWGAAAVEMATKFNLEEQKLISEEDLHHHHHH
modifications: N-linked glycans at sequons 83-NDT-85; 130-NAT-132
B21: SEQ ID NO 77 (I53-50A_7gly) (designed binder)
chain: EELFKKHKIVAVLRANSVEEAIEKAVAVFAGGVHLIEITFTVPNATTVIKALSVLKEKGAIIGAGTVTSVEYANETVESNATFIVSPHLDEEISNFTKEKNVTYMPGVMTPTELVKAMKLNVTILKLFPGEVVGPQFVKAMKGPFHNATFVPTGGVNLDNVCEWFKAGVLAVGVGSALVKGTPDEVREKAKAFVEKIRGC
modifications: N-linked glycans at sequons 45-NAT-47; 73-YANET-77; 81-NAT-83; 96-NFT-98; 102-NVT-104; 122-NVT-124; 146-FHNAT-150
B22: SEQ ID NO 75 (I53-50A_6gly) (designed binder)
chain: EELFKKHKIVAVLRANSVEEAIEKAVAVFAGGVHLIEITFTVPNATTVIKALSVLKEKGAIIGAGTVTSVEYANETVESGAEFIVSPHLDEEISNFTKEKNVTYMPGVMTPTELVKAMKLNVTILKLFPGEVVGPQFVKAMKGPFHNATFVPTGGVNLDNVCEWFKAGVLAVGVGSALVKGTPDEVREKAKAFVEKIRGC
modifications: N-linked glycans at sequons 45-NAT-47; 73-YANET-77; 96-NFT-98; 102-NVT-104; 122-NVT-124; 146-FHNAT-150
B23: SEQ ID NO 76 (I53-50A_7gly) (designed binder)
chain: EELFKKHKIVAVLRANSVEEAIEKAVAVFAGGVHLIEITFTVPNATTVIKALSVLKEKGAIIGAGTVFSNETCRKAVESNATFIVSPHLDEEISNFTKEKNVTYMPGVMTPTELVKAMKLNVTILKLFPGEVVGPQFVKAMKGPFHNATFVPTGGVNLDNVCEWFKAGVLAVGVGSALVKGTPDEVREKAKAFVEKIRGC
modifications: N-linked glycans at sequons 45-NAT-47; 69-FSNET-73; 81-NAT-83; 96-NFT-98; 102-NVT-104; 122-NVT-124; 146-FHNAT-150

The first test concerns the target T1, I53_dn5B trimer. Briefly: in vitro nanoparticle assembly, SEC.
For the molecule B1, the binding result is given as “binds”. Consider B2, for which the binding result is given as “binds”.

In the case of B3, the binding result is reported as “binds”. For the molecule B4, the binding result is on record as “binds”. Still for that read-out and setting: as for B5, the entry is “binds”. On to B6, for which the binding result is on record as “binds”. Consider B7, for which the binding result is reported as “binds”.

A further test concerns the target I53-50B.4PT1 pentamer. As to the kind of experiment: nanoparticle assembly grade, Table 3.
In the case of B8, the binding result is “binds”.

In the case of B9, the binding result was “binds”. Same read-out and setting: under B10 stands “binds”; under B11, “binds”; under B12, “binds”. For the molecule B13, the binding result was “binds”. Take B14: the binding result is reported as “binds”.

A further test addresses T1, I53_dn5B trimer. As to the kind of experiment: nanoparticle assembly grade, Table 3.
As for B15, the binding result is on record as “binds”. Regarding B16, the binding result is on record as “binds”. Take B17: the binding result is given as “binds”.

Turning to B18, the binding result is reported as “binds”. On to B19, for which the binding result is “binds”. Same read-out and setting: as for B20, the entry is “binds”.

In a further test the target is I53-50B.4PT1 pentamer. Briefly: in vitro nanoparticle assembly (Table 3; '-' means no nanoparticle assembly).
For B21, the binding result was “no binding”. In the case of B22, the binding result is “no binding”.

Turning to B23, the binding result was “no binding”.
